According to patent publication US5506202A, “Insulin derivatives, a process for the preparation thereof, the use thereof, and a pharmaceutical formulation containing them” (Hoechst Aktiengesellschaft, priority 1988, dated 1996):
Where two headings read alike, the source gives them in different places.

Assays:
[1] = isoelectric point (measured by isoelectric focusing); format: physicochemical; conditions: insulin derivatives of the invention
Experimental: Characteristic of these insulin derivatives is an isoelectric point between 5.8 and 8.5 (measured by isoelectric focusing). The isoelectric point--which is shifted into the neutral range by comparison with the isoelectric point of the unmodified native insulin or proinsulin (at pH = 5.4)--is determined by the additional positive charge(s) located on the surface of the molecule as a result of the basic modification. This makes these insulin derivatives with a basic modification less soluble in the physiological neutral range than is, for example, native insulin or proinsulin, which are normally in dissolved form in the neutral range.
The isoelectric point of the insulin derivatives of the formula II is between 5.5 and 9.0 (measured by isoelectric focusing).

[2] = unmodified native insulin or proinsulin, background; cited from earlier work

A0-Arg-de-Thr-B30-human insulin
isoelectric point [1]: about 6.2

native insulin: unmodified native insulin, comparison for isoelectric point and biological activity
isoelectric point [2]: 5.4 pH

proinsulin: proinsulin, comparison for isoelectric point
isoelectric point [2]: 5.4 pH
